The source of these data is patent US20170210813A1 (Regeneron, published 2017).

As a reminder, the Kd is the concentration at which binding is half-saturated. A higher Kd goes with weaker binding. By koff is commonly meant a measure of how fast the partners let go of each other. Lower therefore signals slow dissociation. For orientation: kon means the second-order rate constant of association.

In assay [1] the target is T1, hPDGFRb.mmh (human, UniProt P09619 33-531).
T1 construct: Soluble monomeric construct; also called soluble human PDGFR-beta.mmh
In words: Octet BLI cross-competition, 25 C; hPDGFRb.mmh on anti-Penta-His tips pre-saturated with mAb-1 H4H3094P (row 5). A digest of the protocol:
(§1)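 On an Octet RED384 in HBST at 25 °C and 1000 rpm, hPDGFRβ.mmh-coated tips were saturated for 5 min with mAb-1 at 50 μg/mL. A second antibody was then applied, and its real-time binding to the pre-complexed receptor was monitored.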
(In general: Biolayer interferometry detects binding as a change in optical thickness at a sensor tip.)

For assay [2], the target named is T2, PDGFR-beta extracellular domain construct D1-D3 (human).
T2 construct: also called D1-3
T2 chain: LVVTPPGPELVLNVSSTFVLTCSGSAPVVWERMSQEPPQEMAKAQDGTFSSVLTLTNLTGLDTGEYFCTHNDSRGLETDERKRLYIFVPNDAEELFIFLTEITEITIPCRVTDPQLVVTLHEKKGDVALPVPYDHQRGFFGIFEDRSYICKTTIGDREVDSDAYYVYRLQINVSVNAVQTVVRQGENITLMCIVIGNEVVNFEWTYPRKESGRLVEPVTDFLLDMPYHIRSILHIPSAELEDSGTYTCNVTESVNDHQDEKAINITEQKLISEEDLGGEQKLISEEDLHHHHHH
In words: SPR, mAb captured, construct at 50nM. As for the experimental part: (§2) Four different anti-PDGFR-beta antibodies were tested for binding to the various constructs by surface plasmon resonance (Biacore). Briefly, 150-200 RU's of anti-PDGFR beta antibody was captured via an anti-human Fc CM5 chip. Next, the individual domain constructs, or full-length PDGFR beta, was applied over the antibody-bound surface at a concentration of 50nM. The ability of the various antibodies to bind to the various domain constructs was measured. (−)=No binding observed; (+)=Binding observed; ND=Not determined.
In general terms: In SPR one partner is held on a chip, and binding of the other changes the refractive index at the surface.

Assay [3] deals with T3, PDGFR-beta extracellular domain construct D1-D4 (human).
T3 construct: also called D1-4
T3 chain: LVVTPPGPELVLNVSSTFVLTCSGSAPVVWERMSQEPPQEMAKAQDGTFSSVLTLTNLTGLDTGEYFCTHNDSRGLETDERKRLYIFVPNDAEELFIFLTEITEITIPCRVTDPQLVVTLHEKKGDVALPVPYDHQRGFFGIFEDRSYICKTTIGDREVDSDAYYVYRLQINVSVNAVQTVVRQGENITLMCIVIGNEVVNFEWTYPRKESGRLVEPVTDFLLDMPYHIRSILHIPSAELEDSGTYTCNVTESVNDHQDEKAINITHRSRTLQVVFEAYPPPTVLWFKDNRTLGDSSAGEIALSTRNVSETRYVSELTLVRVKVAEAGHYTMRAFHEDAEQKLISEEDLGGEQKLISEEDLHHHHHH
As to the kind of experiment: SPR, mAb captured, construct at 50nM. As for the experimental part:
as §2

The target in assay [4] is T4, PDGFR-beta extracellular domain construct D1-D2 (human).
T4 construct: also called D1-2
T4 chain: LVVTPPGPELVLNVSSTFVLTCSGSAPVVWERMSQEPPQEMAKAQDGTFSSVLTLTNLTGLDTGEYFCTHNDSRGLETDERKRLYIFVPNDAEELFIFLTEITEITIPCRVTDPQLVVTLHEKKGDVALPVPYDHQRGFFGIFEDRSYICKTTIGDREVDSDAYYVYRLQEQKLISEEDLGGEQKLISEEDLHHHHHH
In words: SPR, mAb captured, construct at 50nM. The procedure:
as §2

For assay [5], the target named is T1, hPDGFRb.mmh. As to the kind of experiment: Octet BLI cross-competition, 25 C; hPDGFRb.mmh on anti-Penta-His tips pre-saturated with mAb-1 H4H3107S (row 7). In short, it runs like this:
as §1

Assay [6] deals with T5, Macaca fascicularis PDGFRb.mmh (Macaca fascicularis).
T5 construct: Soluble monomeric construct; also called mfPDGFRb.mmh
T5 chain: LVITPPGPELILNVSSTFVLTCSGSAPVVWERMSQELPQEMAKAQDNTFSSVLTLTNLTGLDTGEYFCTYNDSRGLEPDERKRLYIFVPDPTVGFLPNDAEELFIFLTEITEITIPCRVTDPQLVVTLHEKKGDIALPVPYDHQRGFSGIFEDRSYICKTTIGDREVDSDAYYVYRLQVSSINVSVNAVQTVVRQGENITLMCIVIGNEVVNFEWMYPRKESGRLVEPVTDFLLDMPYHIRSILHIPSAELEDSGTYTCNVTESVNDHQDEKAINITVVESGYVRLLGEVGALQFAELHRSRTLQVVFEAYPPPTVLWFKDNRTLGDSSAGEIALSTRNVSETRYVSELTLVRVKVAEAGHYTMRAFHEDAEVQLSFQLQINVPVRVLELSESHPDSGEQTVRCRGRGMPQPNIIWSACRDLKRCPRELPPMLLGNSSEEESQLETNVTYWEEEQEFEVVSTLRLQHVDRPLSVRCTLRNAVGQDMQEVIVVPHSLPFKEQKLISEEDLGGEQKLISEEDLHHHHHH
As to the kind of experiment: SPR, mAb captured, 25 C. The procedure: (§3) Antibodies, expressed as either mouse Fc (prefix H1M; H2M) or human Fc (prefix H4H), were captured on their respective anti-Fc sensor surfaces (Mab capture format). […] Kinetic association (kₐ) and dissociation (kd) rate constants were determined by processing and fitting the data to a 1:1 binding model using Scrubber 2.0 curve fitting software.

The target of assay [7] is T1, hPDGFRb.mmh. In words: SPR, mAb captured, 25 C. The procedure: as §3
Assay [8] deals with T2, PDGFR-beta extracellular domain …. In words: SPR, mAb captured, construct as analyte. As for the experimental part: as §2
Assay [9] addresses T3, PDGFR-beta extracellular domain …. As to the kind of experiment: SPR, mAb captured, construct as analyte. As for the experimental part:
as §2

The target in assay [10] is T4, PDGFR-beta extracellular domain …. As to the kind of experiment: SPR, mAb captured, construct as analyte. As for the experimental part: as §2
In assay [11] the target is T1, hPDGFRb.mmh. In words: Octet BLI cross-competition, 25 C; hPDGFRb.mmh on anti-Penta-His tips pre-saturated with mAb-1 H4H3374N (row 3). In short, it runs like this:
as §1

B1: H4H3374N (antibody, human IgG4, V domains shown)
VH: QLQLQESGPGLVKPSETLSLTCTVSGGSITSSSYYWGWIRQPPGKGLEWIGSIYYRGSTNYNPSLKSRVTISVDSSKNQFYLKVSSVTAVDTAVYYCARQNGAARPSWFDPWGQGTLVTVSS
VL: EIVLTQSPDTISLSPGERATLSCRASQSISSIYLAWYQQKPGQAPRLLIYGASSRVTGIPDRFSVSGSGTDFTLTISRLEPEDFAVYYCQHYGISPFTFGPGTKVDIR
notes: human IgG4 Fc (H4H prefix)
Turning to B1, the “Response of mAb-2 Binding to hPDGFRβ.mmh Pre-Complexed with mAb-1 (nm)” value (from here on “Response of mAb-2 Binding”) in the assay with hPDGFRb.mmh [1] stood at 0 nm; in the assay with hPDGFRb.mmh [5] it was 0.24 nm. Also, the binding result in assay [2], in [3] and in [4] was “binds” each time. In addition, the Kd in [6] worked out at 1.66 nM; with hPDGFRb.mmh [7], 1.26 nM. Also, the values for the koff (in assay [6]; in the assay with hPDGFRb.mmh [7]) were 0.000472 s⁻¹ and 0.000358 s⁻¹, respectively. For the same molecule, the kon amounted to 284000 M⁻¹ s⁻¹ in assay [6] and 283000 M⁻¹ s⁻¹ with hPDGFRb.mmh [7]. For the same molecule, the t1/2 was found to be 24 min in assay [6] and 32 min with hPDGFRb.mmh [7].

B2: H4H3305N (antibody, human IgG4, V domains shown)
VH: QLQLQESGPGLVKPSETLSLTCIVSGGSISSSSYYWGWIRQPPGKGLEWIGSLYYSGITFYNPSLKSRVTISVDTSKNQFSLTLTSVTAADTAVFYCARHRVMASSPFDHWGQGTLVTVSS
VL: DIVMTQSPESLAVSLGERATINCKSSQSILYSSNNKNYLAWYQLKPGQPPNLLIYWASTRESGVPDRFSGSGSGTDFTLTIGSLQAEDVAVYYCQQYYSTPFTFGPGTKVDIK
notes: human IgG4 Fc (H4H prefix)
On to B2, for which the figures for the “Response of mAb-2 Binding” value with hPDGFRb.mmh [1], with hPDGFRb.mmh [11] and in the assay with hPDGFRb.mmh [5] were 0.27 nm, 0.24 nm and 0 nm, respectively. Further, the binding result in assay [8], in assay [9] and in assay [10] was “no binding (tested: 50nM)” each time. Also, the Kd in assay [6] came out at 1.82 nM; in the assay with hPDGFRb.mmh [7], 1.81 nM. Further, the values for the koff (in assay [6]; with hPDGFRb.mmh [7]) were 0.000111 s⁻¹ and 0.000109 s⁻¹, respectively. Moreover, the kon came out at 61200 M⁻¹ s⁻¹ in [6] and 59900 M⁻¹ s⁻¹ in the assay with hPDGFRb.mmh [7]. Besides, the t1/2 in assay [6] stood at 104 min; with hPDGFRb.mmh [7], 106 min.

B3: H4H3099S (antibody, human IgG4, V domains shown)
VH: QITLKESGPTLVKPTQTLTLTCTFSGFSLTTTGVGVGWIRQPPGKALEWLALIYWNDLKRYSPSLKNRLTITKDTSRHQVVLTMTNMDPMDTATYYCAHRPLYYGSGSGWFDPWGPGTTVTVSS
VL: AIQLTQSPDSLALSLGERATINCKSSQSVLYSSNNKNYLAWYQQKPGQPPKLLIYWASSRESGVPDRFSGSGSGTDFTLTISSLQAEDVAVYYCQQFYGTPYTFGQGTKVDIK
notes: human IgG4 Fc (H4H prefix)
As for B3, the “Response of mAb-2 Binding” value with hPDGFRb.mmh [1] was found to be 0.35 nm; with hPDGFRb.mmh [11], 0.31 nm. Moreover, the binding result in assay [8], in [9] and in assay [10] was “no binding (tested: 50nM)” throughout. The values for the Kd (in assay [6]; with hPDGFRb.mmh [7]) were 0.987 nM and 1.16 nM, respectively. Moreover, the koff in assay [6] was 0.000164 s⁻¹; in the assay with hPDGFRb.mmh [7], 0.000169 s⁻¹. Moreover, the kon in assay [6] amounted to 166000 M⁻¹ s⁻¹; in the assay with hPDGFRb.mmh [7], 145000 M⁻¹ s⁻¹. The t1/2 was determined as 71 min in [6] and 68 min with hPDGFRb.mmh [7].

B4: H4H3094P (antibody, human IgG4, V domains shown)
VH: EVQLVESGGGLVQPGGSLRLSCAASGFTFSSYWMSWVRQAPGKGLEWVANMNQDGSETHYVDSVKGRLSISRDNAKKSLFLHMNSLRAEDTAVYFCARDLVPPRQDDYYYYFGMDVWGHGTTVTVSS
VL: DIQMTQSPSTLSASVGDRVTITCRASQSISDWLAWYQQKPGKAPKLLIFKASTLESGVPSRFSGSGSGTEFTLTISSLQPDDFATYYCQQYNSYSRTFGQGTKVEIK
notes: also called H4H3394P
Consider B4, for which the binding result in [2], in [3] and in assay [4] was “binds” in each case. Besides, the entries for the “Response of mAb-2 Binding” value with hPDGFRb.mmh [11] and with hPDGFRb.mmh [5] were 0.02 nm and 0.23 nm, respectively. In addition, the Kd in assay [6] was 1.63 nM; in the assay with hPDGFRb.mmh [7] it was 1.56 nM. Besides, the koff in [6] is 0.000289 s⁻¹; in the assay with hPDGFRb.mmh [7], 0.000257 s⁻¹. The kon in assay [6] was 177000 M⁻¹ s⁻¹; in the assay with hPDGFRb.mmh [7], 165000 M⁻¹ s⁻¹. In addition, the t1/2 came to 40 min in assay [6] and 45 min with hPDGFRb.mmh [7].
